Assay results: patent US20230143091A1 (SORRISO PHARMACEUTICALS, published 2023)

T1: IL-7R (as used in the IL-7/IL-7R neutralisation ELISA) (UniProt P16871 21-239, limits assumed)
T1 sequence (looked up): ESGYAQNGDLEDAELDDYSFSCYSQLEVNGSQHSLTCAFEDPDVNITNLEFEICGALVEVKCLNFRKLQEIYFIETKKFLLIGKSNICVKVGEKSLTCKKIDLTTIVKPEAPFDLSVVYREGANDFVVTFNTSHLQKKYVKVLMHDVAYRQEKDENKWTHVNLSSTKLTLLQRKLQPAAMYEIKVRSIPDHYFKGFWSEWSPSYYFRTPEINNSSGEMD

T2: IL-7R on human lymphocytes (hPBMCs) (human, UniProt P16871 21-459)
T2 sequence (looked up): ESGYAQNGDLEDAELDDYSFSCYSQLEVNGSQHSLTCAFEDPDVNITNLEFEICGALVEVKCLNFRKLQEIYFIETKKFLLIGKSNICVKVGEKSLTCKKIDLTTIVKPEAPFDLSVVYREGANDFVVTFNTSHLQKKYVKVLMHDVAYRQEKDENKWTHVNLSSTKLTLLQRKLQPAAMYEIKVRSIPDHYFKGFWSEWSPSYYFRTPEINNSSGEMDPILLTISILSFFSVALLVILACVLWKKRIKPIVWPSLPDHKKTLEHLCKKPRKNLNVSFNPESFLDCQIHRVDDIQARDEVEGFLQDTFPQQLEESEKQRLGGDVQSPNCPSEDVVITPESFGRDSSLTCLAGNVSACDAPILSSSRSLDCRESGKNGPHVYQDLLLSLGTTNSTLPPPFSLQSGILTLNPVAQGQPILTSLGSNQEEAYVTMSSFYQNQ

B1: FU3K after trypsin digestion (other)
VHH 1: DVQLVESGGGLVQPGGSLKLSCAASGFDFSSHWMYWVRQAPGKELEWLSEINTNGLITHYGDSVKGRFTVSRNNAANKMYLELTRLEPEDTALYYCARNQHGLNKGQGTQVTVSSGGGGSGGGGSK
VHH 2: GGGGSGGGGSEVQLVESGGGLVQAGGSLRLSCESSISTFSSDAMGWFRQAPGKELEFLAAIGWSGAVTHYSDSVKGRFTISRDNAKNTVYLQMNSLRAEDTGRYYCAEDYDTDVWQYWGQGTQVTVSS
notes: A mixture of two separate monomers, not a complex; also called post-digestion FU3K; ID-38F and ID-A62U monomer arms released from FU3K
B2: ID-38F (VHH)
VHH: DVQLVESGGGLVQPGGSLKLSCAASGFDFSSHWMYWVRQAPGKELEWLSEINTNGLITHYGDSVKGRFTVSRNNAANKMYLELTRLEPEDTALYYCARNQHGLNKGQGTQVTVSS
B3: FU3K bihead (bispecific antibody)
chain: DVQLVESGGGLVQPGGSLKLSCAASGFDFSSHWMYWVRQAPGKELEWLSEINTNGLITHYGDSVKGRFTVSRNNAANKMYLELTRLEPEDTALYYCARNQHGLNKGQGTQVTVSSGGGGSGGGGSKGGGGSGGGGSEVQLVESGGGLVQAGGSLRLSCESSISTFSSDAMGWFRQAPGKELEFLAAIGWSGAVTHYSDSVKGRFTISRDNAKNTVYLQMNSLRAEDTGRYYCAEDYDTDVWQYWGQGTQVTVSS
notes: Produced in S. cerevisiae; also called pre-digestion FU3K; heterobihead
B4: V7R-2E9 (VHH)
VHH: EVQLVESGGGLVQAGGSLRLSCESSISTFSSDAMGWFRQAPGKEREFLAAIGWSGAVTHYSDSVQGRFTISRDNAKNTVYLQMNSLKSEDTGRYYCAEDYDTDVWQYWGQGTQVTVSS
B5: ID-A62U (VHH)
VHH: DVQLVESGGGLVQAGGSLRLSCESSISTFSSDAMGWFRQAPGKELEFLAAIGWSGAVTHYSDSVKGRFTISRDNAKNTVYLQMNSLRAEDTGRYYCAEDYDTDVWQYWGQGTQVTVSS
notes: Produced in S. cerevisiae; Comprises E1D and R45L mutations relative to ID-A40U

Tests used:
[1] = biological target: T1, IL-7R (as used in the IL-7/IL-7R …); experiment: IL-7/IL-7R neutralisation ELISA; blocked ligand IL-7, bound IL-7 detected with biotinylated anti-hIL-7 and Extravidin-HRP
human TNFα = biological target: T3, human TNFα (human, UniProt P01375 77-233); experiment: competition ELISA on plate-coated human TNFα; competitor 2 nM biotinylated adalimumab, detected with ExtrAvidin-HRP
T3 construct: also called TNF-alpha; Tumour necrosis factor-alpha
Method: ELISA plates were coated with 100 ng/mL human TNFα in 250 μg/mL bovine serum albumin (BSA) in phosphate buffered saline (1×PBS) and blocked with 1% BSA in 1×PBS.

[2] = biological target: T2, IL-7R on human lymphocytes (hPBMCs); experiment: cell-based or functional assay

T3 sequence (P01375 77-233 limits assumed): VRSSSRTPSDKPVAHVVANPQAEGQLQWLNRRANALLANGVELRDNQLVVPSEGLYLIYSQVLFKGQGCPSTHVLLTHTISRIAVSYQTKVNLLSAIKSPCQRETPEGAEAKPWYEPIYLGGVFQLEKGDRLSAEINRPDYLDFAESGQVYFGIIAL

Row | Binder | IC50 (read off the curve) [1] [nM] | also measured
1 | B1 | ~0.4 | 
2 | B2 |  | binding result (human TNFα): binds
3 | B3 | ~0.2 | 
4 | B4 |  | IL-7 induced pSTAT5 in hPBMCs EC50 nM [2]: 2.86 nM
5 | B5 | 0.1 to 0.2 | 
